Test results reported in article PMC3376577, “A Reusable Impedimetric Aptasensor for Detection of Thrombin Employing a Graphite-Epoxy Composite Electrode”.

Tests used:
thrombin = thrombin (UniProt P00734;P00734 328-363;364-622); experiment: electrochemical impedance spectroscopy; linear response 7.5-75 pM, detection limit 4.5 pM; PEG-blocked electrode, [Fe(CN)6]3-/4- probe; complex broken by 2.0 M NaCl at 42 C; PBS (187 mM NaCl, 2.7 mM KCl, 8.1 mM Na2HPO4, 1.76 mM KH2PO4, pH 7.0), room temperature; aptamer 1 uM adsorbed on graphite-epoxy electrode, PEG blocking
serum albumin = serum albumin (UniProt P02768 25-609); experiment: electrochemical impedance spectroscopy; albumin 5,000 mg/dL; Rct did not increase (slight decrease); PBS (187 mM NaCl, 2.7 mM KCl, 8.1 mM Na2HPO4, 1.76 mM KH2PO4, pH 7.0), room temperature; aptamer 1 uM adsorbed on graphite-epoxy electrode, PEG blocking; conditions: G-quadruplex (quadriplex)
serum albumin, sequence (P02768 25-609): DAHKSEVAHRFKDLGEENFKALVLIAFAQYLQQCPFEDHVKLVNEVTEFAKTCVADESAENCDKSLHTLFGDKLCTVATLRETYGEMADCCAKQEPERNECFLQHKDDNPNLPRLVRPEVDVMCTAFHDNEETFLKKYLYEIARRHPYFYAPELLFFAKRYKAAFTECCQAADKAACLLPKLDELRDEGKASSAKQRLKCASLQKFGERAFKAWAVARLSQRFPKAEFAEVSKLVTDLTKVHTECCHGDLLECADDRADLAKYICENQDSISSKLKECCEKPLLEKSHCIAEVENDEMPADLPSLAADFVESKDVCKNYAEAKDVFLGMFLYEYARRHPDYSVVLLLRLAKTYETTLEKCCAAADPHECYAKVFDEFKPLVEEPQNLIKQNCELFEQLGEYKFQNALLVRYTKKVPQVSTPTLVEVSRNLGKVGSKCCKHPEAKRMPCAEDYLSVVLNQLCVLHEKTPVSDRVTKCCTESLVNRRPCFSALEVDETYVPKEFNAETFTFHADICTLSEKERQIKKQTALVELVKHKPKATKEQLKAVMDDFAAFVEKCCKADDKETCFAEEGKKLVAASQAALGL

GGTTGGTGTGGTTGG (structured_DNA) [AptThr]: binds (thrombin); no binding (serum albumin).
